According to patent US20210061896A1 (SHANGHAI YILE BIOTECHNOLOGY, published 2021):
Ends that are not written are not given here.

T1: human proBDNF precursor protein (human, UniProt P23560 19-247)
T1 construct: also called human proBDNF precursor recombinant protein
T1 sequence (looked up): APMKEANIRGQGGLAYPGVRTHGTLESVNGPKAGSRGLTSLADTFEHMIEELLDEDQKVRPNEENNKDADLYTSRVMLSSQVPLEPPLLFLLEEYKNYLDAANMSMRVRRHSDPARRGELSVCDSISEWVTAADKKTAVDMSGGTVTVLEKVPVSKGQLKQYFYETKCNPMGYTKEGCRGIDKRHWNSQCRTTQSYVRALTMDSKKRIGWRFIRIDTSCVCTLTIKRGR

T2: biotinylated VP peptide fragment (human, also: biotinylated (position not given here))
T2 construct: Synthesized in vitro; 12 amino acids
T2 peptide: VMLSSQVPLEPP

T3: biotinylated LL peptide fragment (human, also: biotinylated (position not given here))
T3 construct: Synthesized in vitro; 12 amino acids
T3 peptide: LLFLLEEYKNYL

T4: biotinylated DH peptide fragment (human, also: biotinylated (position not given here))
T4 construct: Synthesized in vitro; 12 amino acids; also called polypeptide DH
T4 peptide: DAANMSMRVRRH

T5: GST-huBDNFpro E4
T5 construct: also called GST-huBDNFpro-E4 peptide fragment; GST fusion partner and any linker between GST and the peptide not given
T5 chain: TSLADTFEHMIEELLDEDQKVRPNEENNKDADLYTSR

T6: GST-huBDNFpro E1
T6 construct: also called GST-huBDNFpro-E1 peptide fragment; GST fusion partner and any linker between GST and the peptide not given
T6 chain: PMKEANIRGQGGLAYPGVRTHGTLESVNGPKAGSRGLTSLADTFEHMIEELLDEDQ

T7: GST-huBDNFpro-E2 peptide fragment (human, UniProt O18755 76-129 (Procyon lotor entry))
T7 construct: also called polypeptide E2; not shown: Glutathione S-transferase (GST) fusion partner
T7 sequence: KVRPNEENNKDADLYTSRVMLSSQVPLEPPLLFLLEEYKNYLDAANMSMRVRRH

T8: GST-huBDNFpro-E5 peptide fragment (human)
T8 construct: the text speaks of 36 amino acids; also called polypeptide E5; not shown: Glutathione S-transferase (GST) fusion partner
T8 chain: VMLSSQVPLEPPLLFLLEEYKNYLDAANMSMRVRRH

T9: full length GST-huBDNFpro (human, UniProt P23560 20-129)
T9 construct: GST is placed at the N-terminus by the printed name only; not shown: Glutathione S-transferase (GST) fusion partner
T9 chain: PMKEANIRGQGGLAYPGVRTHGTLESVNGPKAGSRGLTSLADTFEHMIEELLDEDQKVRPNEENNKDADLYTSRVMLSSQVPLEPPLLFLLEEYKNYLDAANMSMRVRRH


Columns and labels:
BSA = molecular target: T10, BSA (UniProt P02769 25-607); assay: single-phage ELISA
T10 construct: also called negative control protein BSA
T10 sequence (P02769 25-607 limits assumed): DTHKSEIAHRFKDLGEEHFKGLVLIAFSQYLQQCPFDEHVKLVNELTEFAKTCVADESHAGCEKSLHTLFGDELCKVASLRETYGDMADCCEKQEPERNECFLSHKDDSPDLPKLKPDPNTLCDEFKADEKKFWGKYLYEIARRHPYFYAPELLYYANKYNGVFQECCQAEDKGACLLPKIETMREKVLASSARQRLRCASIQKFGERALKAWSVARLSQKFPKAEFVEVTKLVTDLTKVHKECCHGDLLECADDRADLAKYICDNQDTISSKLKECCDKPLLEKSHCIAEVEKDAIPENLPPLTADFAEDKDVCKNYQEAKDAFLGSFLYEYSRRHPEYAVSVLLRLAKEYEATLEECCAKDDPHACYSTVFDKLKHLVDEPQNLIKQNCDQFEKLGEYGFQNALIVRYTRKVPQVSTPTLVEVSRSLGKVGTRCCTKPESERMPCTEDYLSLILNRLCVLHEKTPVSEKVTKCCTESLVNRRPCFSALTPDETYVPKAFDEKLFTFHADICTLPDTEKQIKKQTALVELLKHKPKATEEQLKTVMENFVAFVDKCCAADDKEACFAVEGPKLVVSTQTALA
Protocol: Ninety-six clones were randomly selected from the fourth round of screening, and single-phage ELISA (enzyme-linked immunosorbent assay) was used to analyze their binding ability to human proBDNF precursors. For this purpose, each single colony was inoculated into 300 μl of 2×YT/ampicillin medium (containing 2% glucose) in a 96-well deep-well culture plate, shaken and cultured at 37° C. and 250 rpm for 16 hours. 20 μl of the culture was inoculated into 500 μl of 2×YT/ampicillin medium (containing 0.1% glucose), and shaken and cultured at 37° C. and 250 rpm for 1.5 hours. For preparing helper phage solution, 75 μl of M13KO7 (titer: 3×10¹² pfu/ml) was taken and mixed into 15 ml of 2×YT medium, added to the culture plate at 50 μl/well, and incubate at 37° C. and 150 rpm for 30 minutes. And then, the prepared kanamycin solution was added at 50 μl/well (180 μl of 50 mg/ml kanamycin was taken and added to 15 ml 2×YT medium), and shaken and cultured at 37° C. and 250 rpm for 16 hours. […]
To perform a single phage ELISA, a 96-well MediSorp ELISA plate (purchased from Nunc) was coated with 100 ng/well antigen human proBDNF precursor and negative control protein BSA (100 μl/well) respectively, overnight at 4° C. […] The extinction value was measured at 450 nm using an enzyme-linked immunoassay device (Bio-Rad).

[1] = molecular target: T1, human proBDNF precursor protein; assay: SPR, Biacore T200, capture method, antigen 0.25-8 nM
Protocol: The affinity and kinetic parameters of the 1D3 and 2H8 monoclonal antibodies were measured by the capture method using Biacore T200 system (purchased from GE), respectively. The system was manipulated according to the instructions, human proBDNF precursor protein was used at a concentration of 0.25 nM, 0.5 nM, 1 nM, 2 nM, 4 nM, and 8 nM, respectively. The Biacore T200 evaluation software was used to evaluate the resulting action curve and calculate the affinity KD value.

[2] = molecular target: T2, biotinylated VP peptide fragment; assay: ELISA on biotinylated peptide
[3] = molecular target: T3, biotinylated LL peptide fragment; assay: ELISA on biotinylated peptide
[4] = molecular target: T2, biotinylated VP peptide fragment; assay: ELISA on biotinylated synthetic peptides (Example 8), single condition, concentrations not given
[5] = molecular target: T3, biotinylated LL peptide fragment; assay: as above
[6] = molecular target: T4, biotinylated DH peptide fragment; assay: as above
GST-huBDNFpro E4 [7] = molecular target: T5, GST-huBDNFpro E4; assay: ELISA on GST fusion proteins (Example 7), single condition
GST-huBDNFpro E1 [8] = molecular target: T6, GST-huBDNFpro E1; assay: as above
[9] = molecular target: T7, GST-huBDNFpro-E2 peptide fragment; assay: ELISA on GST fusion proteins (Example 7), single condition, concentrations not given
GST-huBDNFpro E3 = molecular target: T11, GST-huBDNFpro E3; assay: as above
T11 construct: fusion tag; also called GST-huBDNFpro-E3 peptide fragment

GST-GPC3 = molecular target: T12, GST-GPC3; assay: as above
T12 construct: fusion tag; It appears to be the negative control antigen

[10] = molecular target: T8, GST-huBDNFpro-E5 peptide fragment; assay: as above
GST-huBDNFpro E4 [11] = molecular target: T5, GST-huBDNFpro E4; assay: as above
GST-huBDNFpro E1 [12] = molecular target: T6, GST-huBDNFpro E1; assay: as above
[13] = molecular target: T9, full length GST-huBDNFpro; assay: as above

Binder | binding result (BSA) | Kd [1] | koff [1] | kon [1] | binding result [2] | binding result [3] | OD450nM [4] | OD450nM [5] | OD450nM [6] | binding result (GST-huBDNFpro E4 [7]) | binding result (GST-huBDNFpro E1 [8]) | OD450nM [9] | OD450nM (GST-huBDNFpro E3) | OD450nM (GST-GPC3) | OD450nM [10] | OD450nM (GST-huBDNFpro E4 [11]) | OD450nM (GST-huBDNFpro E1 [12]) | OD450nM [13]
single-chain antibody 1D3 (scFv, also called 1D3, scFv; pCantab-1D3) scFv: QVQLVESGGGLIQPGGSMRLSCAASGFSLSGYDMHWVRQIAGKGLEWVAGLGMEGDSYYSASVKGRFTISRQDAKNSLYLEMKDLGGGDTAVYYCLRDVHGFDVWGQGTTVTVSSGGGGSGGGGSGGGGSDVVMTQSPLSLPVTPGEPASISCRSSQSLLYSNGYTYLDWYLQRPGQSPQLLIYMGSNRASGVPDRFSGSGSGTDFTLKISRVEAEDVGVYYCMQALQTPLTFGGGTKLEIKR | no binding (tested: 100 ng/well coated) | – | – | – | – | – | – | – | – | – | – | – | – | – | – | – | – | –
2H8 monoclonal antibody (antibody, human IgG4, kappa, V domains shown, also called recombinant monoclonal antibody 2H8 (human IgG1 type)) VH: EVQLVETGGGLVQPGGSLRLSCAASGFTFSSYGMHWVRQAPGKGLEWVSVISGSGDSTYYAESVKGRFTISRDNARNTVYLQMNSLRAEDTAVYYCASGILTGYVFDYWGKGTMVTVSS VL: DVVMTQSPLSLPVTLGQPASISCRSSQSLVSNDGNTYLNWFQQRPGQPPRRLIYMVSKWDSGVPDRFSGSGSGTDFTLRISRVEAEDVGVYYCMQSTHWPPTFGGGTKLEIKR | – | 1.91 nM | 0.00594 s⁻¹ | 3.1e+06 M⁻¹ s⁻¹ | no binding | no binding | 0.0104 | 0.0115 | 0.831 | no binding | no binding | 0.962 | 0.0144 | 0.05 | 1.06 | 0.0089 | 0.015 | 0.758
single-chain antibody 2H8 (scFv, probably a print error; also called 2H8, scFv; pCantab-2H8) scFv: EVQLVETGGGLVQPGGSLRLSCAASGFTFSSYGMHWVRQAPGKGLEWVSVISGSGDSTYYAESVKGRFTISRDNARNTVYLQMNSLRAEDTAVYYCASGILTGYVFDYWGKGTMVTVSSGGGGSGGGGSGGGGSDVVMTQSPLSLPVTLGQPASISCRSSQSLVSNDGNTYLNWFQQRPGQPPRRLIYMVSKWDSGVPDRFSGSGSGTDFTLRISRVEAEDVGVYYCMQSTHWPPTFGGGTKLEIKR | no binding (tested: 100 ng/well coated) | – | – | – | – | – | – | – | – | – | – | – | – | – | – | – | – | –
1D3 monoclonal antibody (antibody, human IgG4, kappa, V domains shown, also called recombinant monoclonal antibody 1D3 (human IgG1 type); Ab-proBDNF (1D3)) VH: QVQLVESGGGLIQPGGSMRLSCAASGFSLSGYDMHWVRQIAGKGLEWVAGLGMEGDSYYSASVKGRFTISRQDAKNSLYLEMKDLGGGDTAVYYCLRDVHGFDVWGQGTTVTVSS VL: DVVMTQSPLSLPVTPGEPASISCRSSQSLLYSNGYTYLDWYLQRPGQSPQLLIYMGSNRASGVPDRFSGSGSGTDFTLKISRVEAEDVGVYYCMQALQTPLTFGGGTKLEIKR | – | – | – | – | no binding | no binding | 0.0122 | 0.0167 | 1.7 | no binding | no binding | 0.914 | 0.0245 | 0.0577 | 0.979 | 0.0081 | 0.0114 | 0.625
